Percent of binding to the natural peptide (AUC) data for four molecules are collected here from US20210061891A1.

Holding throughout (assay): ELISA on streptavidin-immobilized biotinylated 15mer peptides; area under the signal vs antibody concentration curve
(In general: ELISA stands for enzyme-linked immunosorbent assay.)

The target in experiment [1] is residue mutated to A: I.
The target in experiment [2] is residue mutated to A: T.
Experiment [3] concerns the target residue mutated to A: N.

B1: Ab7955 (antibody, V domains shown)
VH: LVESGGGVVRPGRSLRLSCVASGFTFNAYGMHWVRQGPGKGLEWLAVISYEGKTVYYADSVKDRFTISRDNSRNTVSLHLNNLRGEDTAVYYCAKGSASAAVLQHWGQGTLVSVTS
VL: MTQSPGSLAVSLGSRATINCKSSRSLLYRSNNKNYLAWYQQKPGQSPRLLIYWASSRESGVPDRFSGGGSGTSFTLTISSLQAEDVAVYYCQQYFNPPWTFGQGTKVEIK
Take B1: the percent of binding to the natural peptide (AUC) in experiment [1] is 8%.

B2: Ab7960/293i (antibody, V domains shown)
VH: LVESGGGVVQPGKSLRLSCVASGFSFSTYGMHWVRQAPGKGLEWVAVMSFDGKTKYYADSVKGRFTISRDNPKNTLYLQMNSLRSEDTAVYYCAKGGAAAAVFDSWGPGILLTVSS
VL: MTQSPNSLAVSLGGRATINCKASQSILYRSNNKNYLAWYQHKAGQPPKLLIYWASTRESGVPERFSGSGSRTDFTLTINGLQAEDVAVYYCQQYYNPPWTFGQGTKVEIK
B2 showed a percent of binding to the natural peptide (AUC) in experiment [2] of 4%.

B3: Ab7979 (antibody, V domains shown)
VH: LVESGGGVVQPGKSLRLSCVASGFTFSTYGMHWVRQAPGKGLEWVAVMSFDGKTKYYADSVKGRFTISRDNPKNTLYLQMNSLRSEDTAVYYCAKGGAAAAVFDSWGQGILLTVSS
VL: MTQSPNSLAVSLGGRATINCKTSQSILYRSNNKNYLAWYQHKPGQPPKLLIYWASTRESRVPDRFSGSGSRTDFTLTISGLQAEDVAVYYCQQYYNPPWTFGQGTKVEIK
B3 came in with a percent of binding to the natural peptide (AUC) in experiment [2] of 34%.

B4: Ab7961/293i (antibody, V domains shown)
VH: LVESGGGVVQPGKSLRLSCVASGFTFSSYGMHWVRQAPGKGLEWVAVMSFDGKTKYYADSVKGRFTISRDNPKNTLYLQMNSLRSEDTAVYYCAKGGAAAAVFDSWGQGILLTVSS
VL: MTQSPNSLAVSLGGRATINCKTSQSILYRSNNKNYLAWYQHKSGQPPKLLIYWASTRESGVPDRFSGSGSRTDFTLTISGLQAEDVAVYYCQQYYNPPWTFGQGTKVEIK
For B4, the percent of binding to the natural peptide (AUC) in experiment [3] was 4%.
